Measured values published in US20190263889A1.
Several values for one entry are separate records, joined by “and”; a condition that tells them apart may be missing. Equal entries are not always repeated.

Columns and labels:
[1] = target: CTLA-4Fc mutant protein M1 (human (murine residues substituted)); assay: ELISA; binder 1 ug/ml on coated target
[2] = target: CTLA-4Fc mutant protein M10 (human (murine residues substituted)); assay: ELISA; binder 1 ug/ml on coated target
[3] = target: CTLA-4Fc mutant protein M11 (human (murine residues substituted)); assay: ELISA; binder 1 ug/ml on coated target
[4] = target: CTLA-4Fc mutant protein M2 (human (murine residues substituted)); assay: ELISA; binder 1 ug/ml on coated target
[5] = target: CTLA-4Fc mutant protein M3 (human (murine residues substituted)); assay: ELISA; binder 1 ug/ml on coated target
[6] = target: CTLA-4Fc mutant protein M4 (human (murine residues substituted)); assay: ELISA; binder 1 ug/ml on coated target
[7] = target: CTLA-4Fc mutant protein M5 (human (murine residues substituted)); assay: ELISA; binder 1 ug/ml on coated target
[8] = target: CTLA-4Fc mutant protein M6 (human (murine residues substituted)); assay: ELISA; binder 1 ug/ml on coated target
[9] = target: CTLA-4Fc mutant protein M7 (human (murine residues substituted)); assay: ELISA; binder 1 ug/ml on coated target
[10] = target: CTLA-4Fc mutant protein M8 (human (murine residues substituted)); assay: ELISA; binder 1 ug/ml on coated target
[11] = target: CTLA-4Fc mutant protein M9 (human (murine residues substituted)); assay: ELISA; binder 1 ug/ml on coated target
[12] = target: wild type human CTLA-4Fc fusion protein (abatacept) (human); assay: ELISA; binder 1 ug/ml on coated target
[13] = target: CTLA-4Fc mutant protein M1 (human (murine residues substituted)); assay: ELISA; binder 0 (blank) on coated target
[14] = target: CTLA-4Fc mutant protein M10 (human (murine residues substituted)); assay: ELISA; binder 0 (blank) on coated target
[15] = target: CTLA-4Fc mutant protein M11 (human (murine residues substituted)); assay: ELISA; binder 0 (blank) on coated target
[16] = target: CTLA-4Fc mutant protein M2 (human (murine residues substituted)); assay: ELISA; binder 0 (blank) on coated target
[17] = target: CTLA-4Fc mutant protein M3 (human (murine residues substituted)); assay: ELISA; binder 0 (blank) on coated target
[18] = target: CTLA-4Fc mutant protein M4 (human (murine residues substituted)); assay: ELISA; binder 0 (blank) on coated target
[19] = target: CTLA-4Fc mutant protein M5 (human (murine residues substituted)); assay: ELISA; binder 0 (blank) on coated target
[20] = target: CTLA-4Fc mutant protein M6 (human (murine residues substituted)); assay: ELISA; binder 0 (blank) on coated target
[21] = target: CTLA-4Fc mutant protein M7 (human (murine residues substituted)); assay: ELISA; binder 0 (blank) on coated target
[22] = target: CTLA-4Fc mutant protein M8 (human (murine residues substituted)); assay: ELISA; binder 0 (blank) on coated target
[23] = target: CTLA-4Fc mutant protein M9 (human (murine residues substituted)); assay: ELISA; binder 0 (blank) on coated target
[24] = target: wild type human CTLA-4Fc fusion protein (abatacept) (human); assay: ELISA; binder 0 (blank) on coated target
[25] = target: CTLA-4Fc mutant protein M1 (human (murine residues substituted)); assay: ELISA; binder 100 ng/ml on coated target
[26] = target: CTLA-4Fc mutant protein M10 (human (murine residues substituted)); assay: ELISA; binder 100 ng/ml on coated target
[27] = target: CTLA-4Fc mutant protein M11 (human (murine residues substituted)); assay: ELISA; binder 100 ng/ml on coated target
[28] = target: CTLA-4Fc mutant protein M2 (human (murine residues substituted)); assay: ELISA; binder 100 ng/ml on coated target
[29] = target: CTLA-4Fc mutant protein M3 (human (murine residues substituted)); assay: ELISA; binder 100 ng/ml on coated target
[30] = target: CTLA-4Fc mutant protein M4 (human (murine residues substituted)); assay: ELISA; binder 100 ng/ml on coated target
[31] = target: CTLA-4Fc mutant protein M5 (human (murine residues substituted)); assay: ELISA; binder 100 ng/ml on coated target
[32] = target: CTLA-4Fc mutant protein M6 (human (murine residues substituted)); assay: ELISA; binder 100 ng/ml on coated target
[33] = target: CTLA-4Fc mutant protein M7 (human (murine residues substituted)); assay: ELISA; binder 100 ng/ml on coated target
[34] = target: CTLA-4Fc mutant protein M8 (human (murine residues substituted)); assay: ELISA; binder 100 ng/ml on coated target
[35] = target: CTLA-4Fc mutant protein M9 (human (murine residues substituted)); assay: ELISA; binder 100 ng/ml on coated target
[36] = target: human IgG1-Fc control (human) [IgG part: P01857]; assay: ELISA; binder 100 ng/ml on coated target
mouse CTLA-4-Fc (mouse) = mouse CTLA-4-Fc (mouse) (UniProt P09793); assay: ELISA; binder 100 ng/ml on coated target
[37] = target: wild type human CTLA-4Fc fusion protein (abatacept) (human); assay: ELISA; binder 100 ng/ml on coated target
[38] = target: CTLA-4Fc mutant protein M1 (human (murine residues substituted)); assay: ELISA; binder 1000 ng/ml on coated target
[39] = target: CTLA-4Fc mutant protein M11 (human (murine residues substituted)); assay: ELISA; binder 1000 ng/ml on coated target
[40] = target: CTLA-4Fc mutant protein M3 (human (murine residues substituted)); assay: ELISA; binder 1000 ng/ml on coated target
[41] = target: CTLA-4Fc mutant protein M4 (human (murine residues substituted)); assay: ELISA; binder 1000 ng/ml on coated target
[42] = target: CTLA-4Fc mutant protein M9 (human (murine residues substituted)); assay: ELISA; binder 1000 ng/ml on coated target
[43] = target: CTLA-4Fc mutant protein M11 (human (murine residues substituted)); assay: ELISA, target coated 1 ug/mL, biotinylated binder

Chain of CTLA-4Fc mutant protein M11 (human (murine residues substituted)) (chain, as listed by the source mutant): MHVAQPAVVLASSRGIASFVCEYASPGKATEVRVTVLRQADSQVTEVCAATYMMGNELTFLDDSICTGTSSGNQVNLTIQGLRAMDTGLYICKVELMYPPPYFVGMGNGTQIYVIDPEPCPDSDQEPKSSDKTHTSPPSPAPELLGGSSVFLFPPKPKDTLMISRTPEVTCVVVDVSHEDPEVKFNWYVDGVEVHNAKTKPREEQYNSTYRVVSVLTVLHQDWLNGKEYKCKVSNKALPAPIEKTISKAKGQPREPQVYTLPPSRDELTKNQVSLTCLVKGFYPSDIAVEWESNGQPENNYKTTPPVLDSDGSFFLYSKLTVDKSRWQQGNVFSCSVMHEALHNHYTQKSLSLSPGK
Chain of CTLA-4Fc mutant protein M1 (human (murine residues substituted)) (chain, as listed by the source mutant): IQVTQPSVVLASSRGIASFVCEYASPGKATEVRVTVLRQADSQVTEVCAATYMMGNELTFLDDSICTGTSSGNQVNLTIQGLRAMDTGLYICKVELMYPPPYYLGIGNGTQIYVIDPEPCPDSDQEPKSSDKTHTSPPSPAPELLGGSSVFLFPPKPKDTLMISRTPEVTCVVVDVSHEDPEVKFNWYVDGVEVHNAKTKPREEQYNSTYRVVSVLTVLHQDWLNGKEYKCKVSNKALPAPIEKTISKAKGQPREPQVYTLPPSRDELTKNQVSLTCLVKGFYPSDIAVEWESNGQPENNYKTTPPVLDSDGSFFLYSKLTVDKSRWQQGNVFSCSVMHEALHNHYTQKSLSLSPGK
Chain of CTLA-4Fc mutant protein M10 (human (murine residues substituted)) (chain, as listed by the source mutant): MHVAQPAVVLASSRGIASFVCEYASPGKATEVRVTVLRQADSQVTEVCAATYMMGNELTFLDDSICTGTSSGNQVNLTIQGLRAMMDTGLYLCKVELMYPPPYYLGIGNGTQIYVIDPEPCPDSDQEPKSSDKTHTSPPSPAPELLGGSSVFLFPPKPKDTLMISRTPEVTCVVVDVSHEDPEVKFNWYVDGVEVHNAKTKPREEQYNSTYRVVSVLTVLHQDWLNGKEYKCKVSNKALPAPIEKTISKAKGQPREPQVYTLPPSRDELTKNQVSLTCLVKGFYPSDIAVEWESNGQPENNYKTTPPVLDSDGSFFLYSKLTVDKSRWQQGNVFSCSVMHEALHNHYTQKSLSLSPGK
Chain of CTLA-4Fc mutant protein M8 (human (murine residues substituted)) (chain, as listed by the source mutant): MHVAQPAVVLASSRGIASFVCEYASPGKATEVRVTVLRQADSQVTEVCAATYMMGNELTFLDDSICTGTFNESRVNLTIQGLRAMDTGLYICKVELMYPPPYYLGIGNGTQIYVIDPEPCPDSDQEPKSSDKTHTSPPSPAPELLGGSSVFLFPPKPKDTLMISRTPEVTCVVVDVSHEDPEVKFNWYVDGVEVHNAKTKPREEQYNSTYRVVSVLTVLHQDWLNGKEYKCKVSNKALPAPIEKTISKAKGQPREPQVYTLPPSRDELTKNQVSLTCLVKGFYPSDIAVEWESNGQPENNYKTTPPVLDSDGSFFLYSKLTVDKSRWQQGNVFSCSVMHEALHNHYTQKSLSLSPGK
Chain of CTLA-4Fc mutant protein M7 (human (murine residues substituted)) (chain, as listed by the source mutant): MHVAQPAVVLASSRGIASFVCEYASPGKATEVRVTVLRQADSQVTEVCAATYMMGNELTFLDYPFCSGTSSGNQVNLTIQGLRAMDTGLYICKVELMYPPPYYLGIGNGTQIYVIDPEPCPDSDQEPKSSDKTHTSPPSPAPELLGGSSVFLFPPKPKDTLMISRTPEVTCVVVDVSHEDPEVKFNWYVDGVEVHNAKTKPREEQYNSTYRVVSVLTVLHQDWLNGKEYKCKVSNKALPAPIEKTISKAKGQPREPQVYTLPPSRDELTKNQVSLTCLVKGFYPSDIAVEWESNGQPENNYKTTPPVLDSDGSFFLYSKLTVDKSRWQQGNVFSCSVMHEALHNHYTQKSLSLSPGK
Chain of CTLA-4Fc mutant protein M4 (human (murine residues substituted)) (chain, as listed by the source mutant): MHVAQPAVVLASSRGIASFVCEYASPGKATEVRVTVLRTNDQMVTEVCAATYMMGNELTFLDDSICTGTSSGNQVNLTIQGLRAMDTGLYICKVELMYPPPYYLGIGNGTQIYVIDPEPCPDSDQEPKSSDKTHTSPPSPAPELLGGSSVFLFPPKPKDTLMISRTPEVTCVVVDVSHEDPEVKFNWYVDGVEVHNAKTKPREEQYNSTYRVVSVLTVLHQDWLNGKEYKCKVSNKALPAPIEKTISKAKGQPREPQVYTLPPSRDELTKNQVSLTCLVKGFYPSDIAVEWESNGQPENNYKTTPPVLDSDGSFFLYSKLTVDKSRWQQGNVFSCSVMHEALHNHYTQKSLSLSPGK
Chain of CTLA-4Fc mutant protein M6 (human (murine residues substituted)) (chain, as listed by the source mutant): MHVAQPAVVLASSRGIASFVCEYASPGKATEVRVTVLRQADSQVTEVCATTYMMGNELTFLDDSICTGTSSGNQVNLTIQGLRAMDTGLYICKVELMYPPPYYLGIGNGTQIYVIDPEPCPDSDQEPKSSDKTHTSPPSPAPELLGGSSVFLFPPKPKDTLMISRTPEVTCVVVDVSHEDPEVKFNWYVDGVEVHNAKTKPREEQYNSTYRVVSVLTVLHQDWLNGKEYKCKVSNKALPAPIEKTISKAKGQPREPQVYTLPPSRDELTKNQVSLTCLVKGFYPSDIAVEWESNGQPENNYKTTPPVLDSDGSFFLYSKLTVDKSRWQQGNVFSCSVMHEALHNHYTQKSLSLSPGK
Chain of CTLA-4Fc mutant protein M2 (human (murine residues substituted)) (chain, as listed by the source mutant): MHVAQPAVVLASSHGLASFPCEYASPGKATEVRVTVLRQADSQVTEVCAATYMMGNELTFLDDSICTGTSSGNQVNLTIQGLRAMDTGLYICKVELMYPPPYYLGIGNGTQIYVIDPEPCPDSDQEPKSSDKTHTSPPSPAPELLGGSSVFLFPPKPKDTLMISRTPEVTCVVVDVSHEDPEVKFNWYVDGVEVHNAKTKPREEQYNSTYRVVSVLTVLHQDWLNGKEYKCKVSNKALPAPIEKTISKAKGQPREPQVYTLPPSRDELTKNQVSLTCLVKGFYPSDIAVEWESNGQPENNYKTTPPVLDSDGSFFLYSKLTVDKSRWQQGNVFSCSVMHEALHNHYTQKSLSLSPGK
Chain of CTLA-4Fc mutant protein M9 (human (murine residues substituted)) (chain, as listed by the source mutant): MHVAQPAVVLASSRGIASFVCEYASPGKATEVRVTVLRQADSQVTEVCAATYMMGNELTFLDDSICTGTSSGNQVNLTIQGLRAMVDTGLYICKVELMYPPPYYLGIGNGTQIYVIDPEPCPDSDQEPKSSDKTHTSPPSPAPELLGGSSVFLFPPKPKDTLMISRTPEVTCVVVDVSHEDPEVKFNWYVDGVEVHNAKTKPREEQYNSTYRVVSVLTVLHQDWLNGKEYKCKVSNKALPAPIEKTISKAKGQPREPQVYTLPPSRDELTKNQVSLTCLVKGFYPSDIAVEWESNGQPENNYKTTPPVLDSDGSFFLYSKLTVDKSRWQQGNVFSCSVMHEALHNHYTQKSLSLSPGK
Chain of CTLA-4Fc mutant protein M5 (human (murine residues substituted)) (chain, as listed by the source mutant): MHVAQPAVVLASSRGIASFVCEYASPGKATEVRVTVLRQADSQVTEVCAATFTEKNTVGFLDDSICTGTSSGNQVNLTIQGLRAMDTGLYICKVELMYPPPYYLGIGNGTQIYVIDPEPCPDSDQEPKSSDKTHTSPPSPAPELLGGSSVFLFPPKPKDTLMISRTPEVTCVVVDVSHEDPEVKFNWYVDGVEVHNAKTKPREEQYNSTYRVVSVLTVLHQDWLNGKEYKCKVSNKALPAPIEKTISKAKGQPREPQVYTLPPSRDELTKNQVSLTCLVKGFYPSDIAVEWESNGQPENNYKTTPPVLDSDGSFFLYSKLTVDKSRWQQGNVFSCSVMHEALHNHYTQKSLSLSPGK
Chain of wild type human CTLA-4Fc fusion protein (abatacept) (human) (chain, as listed by the source limits assumed): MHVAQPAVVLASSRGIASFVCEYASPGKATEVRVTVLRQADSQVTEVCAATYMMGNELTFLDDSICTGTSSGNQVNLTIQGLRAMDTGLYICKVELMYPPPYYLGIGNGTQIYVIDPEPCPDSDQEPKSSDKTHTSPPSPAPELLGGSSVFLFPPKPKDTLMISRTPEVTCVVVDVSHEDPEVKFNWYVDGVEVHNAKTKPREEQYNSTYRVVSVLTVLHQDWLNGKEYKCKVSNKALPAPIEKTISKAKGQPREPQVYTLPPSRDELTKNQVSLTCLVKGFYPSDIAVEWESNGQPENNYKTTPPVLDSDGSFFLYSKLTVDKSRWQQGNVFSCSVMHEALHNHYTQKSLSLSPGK
Chain of CTLA-4Fc mutant protein M3 (human (murine residues substituted)) (chain, as listed by the source mutant): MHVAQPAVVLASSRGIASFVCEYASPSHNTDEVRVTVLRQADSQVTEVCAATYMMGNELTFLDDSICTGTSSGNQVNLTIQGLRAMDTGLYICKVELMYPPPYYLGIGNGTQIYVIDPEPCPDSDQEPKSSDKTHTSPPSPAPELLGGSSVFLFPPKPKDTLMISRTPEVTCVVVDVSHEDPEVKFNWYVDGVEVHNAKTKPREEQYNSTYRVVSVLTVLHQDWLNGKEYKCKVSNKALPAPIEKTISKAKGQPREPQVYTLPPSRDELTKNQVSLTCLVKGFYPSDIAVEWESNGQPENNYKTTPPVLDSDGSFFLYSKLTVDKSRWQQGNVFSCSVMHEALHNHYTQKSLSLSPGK
Chain of mouse CTLA-4-Fc (mouse) (P09793 36-161 limits assumed): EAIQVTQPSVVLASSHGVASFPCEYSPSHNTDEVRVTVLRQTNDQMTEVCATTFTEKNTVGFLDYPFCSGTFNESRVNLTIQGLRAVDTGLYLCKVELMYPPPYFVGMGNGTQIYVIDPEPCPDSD

## chimeric L3D10 anti-human CTLA-4 antibody
[1]
  OD450: 3.27 OD450 and 2.97 OD450
[2]
  OD450: 0.804 OD450 and 0.868 OD450
[3]
  OD450: 2.84 OD450 and 2.98 OD450
[4]
  OD450: 2.39 OD450 and 2.62 OD450
[5]
  OD450: 3.18 OD450 and 3.12 OD450
[6]
  OD450: 2.65 OD450 and 2.66 OD450
[7]
  OD450: 3.02 OD450 and 3.03 OD450
[8]
  OD450: 3.09 OD450 and 3.07 OD450
[9]
  OD450: 3.15 OD450 and 2.99 OD450
[10]
  OD450: 3.14 OD450 and 3.03 OD450
[11]
  OD450: 0.916 OD450
[12]
  OD450: 3.37 OD450 and 3.11 OD450
[13]
  OD450: 0.196 OD450 and 0.187 OD450
[14]
  OD450: 0.179 OD450 and 0.166 OD450
[15]
  OD450: 0.183 OD450 and 0.167 OD450
[16]
  OD450: 0.2 OD450 and 0.185 OD450
[17]
  OD450: 0.187 OD450 and 0.18 OD450
[18]
  OD450: 0.184 OD450 and 0.176 OD450
[19]
  OD450: 0.189 OD450 and 0.176 OD450
[20]
  OD450: 0.192 OD450 and 0.176 OD450
[21]
  OD450: 0.198 OD450 and 0.176 OD450
[22]
  OD450: 0.187 OD450 and 0.17 OD450
[23]
  OD450: 0.179 OD450 and 0.166 OD450
[24]
  OD450: 0.202 OD450 and 0.195 OD450
[25]
  OD450: 3.19 OD450 and 3.57 OD450
[26]
  OD450: 0.26 OD450 and 0.272 OD450
[27]
  OD450: 0.752 OD450 and 0.746 OD450
[28]
  OD450: 1.31 OD450 and 1.37 OD450
[29]
  OD450: 2.24 OD450 and 2.54 OD450
[30]
  OD450: 2.23 OD450 and 2.36 OD450
[31]
  OD450: 3.25 OD450 and 3.32 OD450
[32]
  OD450: 3.03 OD450
[33]
  OD450: 2.67 OD450 and 2.88 OD450
[34]
  OD450: 3.02 OD450 and 3.16 OD450
[35]
  OD450: 0.419 OD450 and 0.346 OD450
[36]
  OD450: 0.315 OD450 and 0.326 OD450
Mouse CTLA-4-Fc (mouse)
  OD450: 0.303 OD450 and 0.314 OD450
[37]
  OD450: 3.32 OD450 and 3.46 OD450
[38]
  OD450: 3.51 OD450
[39]
  OD450: 2.89 OD450 and 2.91 OD450
[40]
  OD450: 3.33 OD450 and 3.3 OD450
[41]
  OD450: 3.08 OD450 and 3.15 OD450
[42]
  OD450: 1.12 OD450 and 1.18 OD450
[43]
  fold reduction of binding against WT CTLA-4Fc: 100 fold
